Results on six molecules are retold here after article PMC3587840 (Nature, 2010).

One assay has as its target T1, SEMA4D_(ecto)(K395D) (human, UniProt Q92854 22-677, K395D).
T1 sequence: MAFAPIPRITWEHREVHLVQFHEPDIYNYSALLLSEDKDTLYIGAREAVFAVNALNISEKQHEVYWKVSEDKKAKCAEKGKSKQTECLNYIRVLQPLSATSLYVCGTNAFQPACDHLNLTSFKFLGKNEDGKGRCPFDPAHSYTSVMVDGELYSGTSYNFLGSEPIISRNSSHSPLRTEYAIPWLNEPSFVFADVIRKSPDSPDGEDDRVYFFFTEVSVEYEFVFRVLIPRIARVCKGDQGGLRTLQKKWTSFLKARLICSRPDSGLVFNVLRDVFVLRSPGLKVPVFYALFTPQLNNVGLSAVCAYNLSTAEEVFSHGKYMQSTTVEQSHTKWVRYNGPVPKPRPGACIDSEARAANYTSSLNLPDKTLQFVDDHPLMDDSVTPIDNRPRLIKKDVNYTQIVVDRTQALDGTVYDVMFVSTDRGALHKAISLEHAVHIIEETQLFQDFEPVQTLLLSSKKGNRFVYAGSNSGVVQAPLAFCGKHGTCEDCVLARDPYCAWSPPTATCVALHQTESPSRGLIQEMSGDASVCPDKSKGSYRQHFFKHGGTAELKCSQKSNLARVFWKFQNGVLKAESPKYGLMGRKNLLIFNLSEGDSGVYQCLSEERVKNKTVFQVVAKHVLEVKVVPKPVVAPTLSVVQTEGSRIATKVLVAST
The experiment in a line: SPR.

The target of assay [1] is T2, human SEMA4D_(ecto), C-terminal His-tag (human, UniProt Q92854 22-677).
T2 sequence: T1 sequence with D374K
Briefly: crystal structure.

The target in assay [2] is T3, SEMA4D_(ecto)(F244N/F246S) (human, UniProt Q92854 22-677, F244N | F246S).
T3 sequence: T1 sequence with F223N, F225S, D374K
The experiment in a line: SPR.

For assay [3], the target named is T2, human SEMA4D_(ecto), C-terminal His-tag. Briefly: SPR. Background: Surface plasmon resonance follows binding to a sensor surface in real time, without labels.
In assay [4] the target is T4, mouse PlxnA2_(1–4), C-terminal His-tag (mouse, UniProt P70207 35-703).
T4 sequence: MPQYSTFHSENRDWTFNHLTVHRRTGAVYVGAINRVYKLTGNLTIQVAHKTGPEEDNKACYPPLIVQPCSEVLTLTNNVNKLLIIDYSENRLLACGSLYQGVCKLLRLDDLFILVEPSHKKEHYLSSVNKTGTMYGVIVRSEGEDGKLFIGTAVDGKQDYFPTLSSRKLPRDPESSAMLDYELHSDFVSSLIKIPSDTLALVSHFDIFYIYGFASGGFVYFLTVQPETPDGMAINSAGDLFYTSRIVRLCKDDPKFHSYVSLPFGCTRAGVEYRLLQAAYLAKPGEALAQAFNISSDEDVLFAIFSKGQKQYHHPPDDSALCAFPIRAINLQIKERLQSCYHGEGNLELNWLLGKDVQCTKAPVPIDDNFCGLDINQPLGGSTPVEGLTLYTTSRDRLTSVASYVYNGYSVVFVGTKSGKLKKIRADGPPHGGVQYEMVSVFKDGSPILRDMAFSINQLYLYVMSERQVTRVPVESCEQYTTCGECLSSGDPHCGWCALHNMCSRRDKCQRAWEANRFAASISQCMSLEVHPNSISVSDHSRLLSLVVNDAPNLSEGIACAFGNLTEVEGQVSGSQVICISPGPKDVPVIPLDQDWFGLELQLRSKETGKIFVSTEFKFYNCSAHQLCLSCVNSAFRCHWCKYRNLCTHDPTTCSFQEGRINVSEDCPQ
The experiment in a line: SPR.

For a further assay, the target named is PlxnA2_(1–4)(D193K) (mouse, UniProt P70207 35-703, D193K). Briefly: SPR.

Substitutions are numbered along the chain they refer to. Names may count otherwise.

B1: PLXNB1_(1–2)(D139K) (domain or fragment)
chain: LQPLPPTAFTPNGTYLQHLARDPTSGTLYLGATNFLFQLSPGLQLEATVSTGPVLDSRDCLPPVMPDECPQAQPTNNPNQLLLVSPGALVVCGSVHQGVCEQRRLGQLEQLLLRPERPGKTQYVAANDPAVSTVGLVAQGLAGEPLLFVGRGYTSRGVGGGIPPITTRALWPPDPQAAFSYEETAKLAVGRLSEYSHHFVSAFARGASAYFLFLRRDLQAQSRAFRAYVSRVCLRDQHYYSYVELPLACEGGRYGLIQAAAVATSREVAHGEVLFAAFSSAAPPTVGRPPSAAAGASGASALCAFPLDEVDRLANRTRDACYTREGRAEDGTEVAYIEYDVNSDCAQLPVDTLDAYPCGSDHTPSPMASRVPLEATPILEWPGIQLTAVAVTMEDGHTIAFLGDSQGQLHRVYLGPGSDGHPYSTQSIQQGSAVSRDLTFDGTFEHLYVMTQSTLLKVPVASCAQHLDCASCLAHRDPYCGWCVLLGRCSRRSECSRGQGPEQWLWSFQPELGCLQ
For B1, in the assay with SEMA4D_(ecto)(K395D), the binding result is recorded as “binds”.

B2: human PLXNB1_(1–2), C-terminal His-tag (domain or fragment)
chain: B1 chain with K120D
As to B2, the binding result in assay [1] was “binds”.

B3: human PLXNB1_(1–2), biotinylated at an engineered C-terminal tag (domain or fragment)
chain: B1 chain with K120D
modifications: biotin on the engineered C-terminal tag (enzymatic)
B3 displayed a Kd in assay [2] of 5.5 µM. Also, the binding result in assay [3] was “binds”.

B4: mouse Sema6A_(ecto), biotinylated at an engineered C-terminal tag (domain or fragment)
chain: GFPEDSEPISISHGNYTKQYPVFVGHKPGRNTTQRHRLDIQMIMIMNRTLYVAARDHIYTVDIDTSHTEEIYCSKKLTWKSRQADVDTCRMKGKHKDECHNFIKVLLKKNDDTLFVCGTNAFNPSCRNYRVDTLETFGDEFSGMARCPYDAKHANIALFADGKLYSATVTDFLAIDAVIYRSLGDSPTLRTVKHDSKWLKEPYFVQAVDYGDYIYFFFREIAVEYNTMGKVVFPRVAQVCKNDMGGSQRVLEKQWTSFLKARLNCSVPGDSHFYFNILQAVTDVIRINGRDVVLATFSTPYNSIPGSAVCAYDMLDIANVFTGRFKEQKSPDSTWTPVPDERVPKPRPGCCAGSSSLEKYATSNEFPDDTLNFIKTHPLMDEAVPSIINRPWFLRTMVRYRLTKIAVDNAAGPYQNHTVVFLGSEKGIILKFLARIGSSGFLNGSLFLEEMNVYNPEKCSYDGVEDKRIMGMQLDRASGSLYVAFSTCVIKVPLGRCERHGKCKKTCIASRDPYCGWVRESGSCAHLSPLSRLTFEQDIERGNTDGLGDCHNS
modifications: biotin on the engineered C-terminal tag (enzymatic)
B4 yielded a Kd in assay [4] of 2300 nM.

B5: mouse Sema6A_(ecto), C-terminal His-tag (domain or fragment)
chain: B4 chain
Consider B5, for which the “fold weaker binding than wild type” value in the assay with PlxnA2_(1–4)(D193K) was greater than 9 fold.

B6: Sema6A_(ecto)(I322E), coupled to the chip (domain or fragment, mouse, UniProt O35464 19-571, looked up)
chain: B4 chain with I304E
modifications: biotin on the engineered C-terminal tag (enzymatic)
In the case of B6, the binding result in assay [4] is reported as “binds”.

The term Kd denotes the concentration at which binding is half-saturated.
